From article PMC9307952 (The Journal of Biological Chemistry, 2022)

What was measured:
[1] = target: T1, E. coli LipBK135A/C169A (catalytically inactive double mutant of lipoate protein ligase B) (E. coli, UniProt P60720 1-213, K135A | C169A); experiment: SPR; LipBK135A/C169A immobilised on an activated gold sensor surface (Autolab ESPRIT), increasing concentrations of ACP passed over; 20 mM sodium phosphate pH 8.0, 100 mM NaCl, 298 K; global fit of five injections, 1:1 Langmuir model; settings: both partners purified
[2] = target: T1, E. coli LipBK135A/C169A (catalytically …); experiment: SPR; apparent (binding curve did not reach saturation for holo-ACP); LipBK135A/C169A immobilised on an activated gold sensor surface (Autolab ESPRIT), increasing concentrations of ACP passed over; 20 mM sodium phosphate pH 8.0, 100 mM NaCl, 298 K; global fit of five injections, 1:1 Langmuir model; settings: both partners purified

B1: E. coli C8-ACP (octanoyl-acyl carrier protein), SPR sample (natural protein)
chain: STIEERVKKIIGEQLGVKQEEVTNNASFVEDLGADSLDTVELVMALEEEFDTEIPDEEAEKITTVQAAIDYINGHQA
modifications: octanoyl (C8) chain on a 4'-phosphopantetheine arm (residue not stated)
Kd [1]: 36.4 µM

B2: E. coli apo-ACP (unmodified acyl carrier protein), SPR sample (natural protein)
chain: STIEERVKKIIGEQLGVKQEEVTNNASFVEDLGADSLDTVELVMALEEEFDTEIPDEEAEKITTVQAAIDYINGHQA
Kd [2]: 2100 µM

B3: E. coli holo-ACP (acyl carrier protein with 4'-phosphopantetheine), SPR sample (natural protein)
chain: STIEERVKKIIGEQLGVKQEEVTNNASFVEDLGADSLDTVELVMALEEEFDTEIPDEEAEKITTVQAAIDYINGHQA
modifications: 4'-phosphopantetheine arm (residue not stated)
Kd [2]: 100 µM
